“And” between values parts separate entries of the source, which are not always exact repeats. Identical values can stand only once.
Legend:
[1] = biological target: SPARTA heterodimer (TIR-APAZ/short pAgo complex) from Crenotalea thermophila (Crenotalea thermophila); experiment: cryo-EM structure
[2] = biological target: SPARTA heterodimer (TIR-APAZ/short pAgo complex) from Crenotalea thermophila (Crenotalea thermophila); experiment: mass photometry

stoichiometry N [1]: 4 | stoichiometry N [2]: 2 and 4
Substance: SPARTA heterodimer (TIR-APAZ/short pAgo complex) from Crenotalea thermophila
